Assay results published in US20050244828A1.

Biological target: CD22-Fc fusion protein (extra-cellular domain of human CD22 fused to human IgG Fc) (human) (UniProt P20273)

BL22, a recombinant immunotoxin containing the FV domains of RFB4 fused to PE38, a truncated form of (from UniProt P11439 278-638)
percent inhibition of measured sCD22 level: 50%
